Article PMC8125063

Columns and labels:
[1] = biological target: human Fbp2 L190G mutein (human); assay: native gel or EMSA; Native 9% PAGE; 200 mM Glycine-NaOH pH 9.0, 1 mM MgCl2, with or without 100 µM CoCl2 and/or 10 µM AMP in gel and running buffer; 3 h at 254 V
[2] = biological target: human Fbp2 L190G mutein (human); assay: SEC; HiLoad 16/600 Superdex 200 pg; 50 mM HEPES-NaOH pH 7.5, 150 mM KCl, 1 mM MgCl2, with or without 100 µM CoCl2 and/or 10 µM AMP; 0.5 mg protein loaded, 1 mL/min

stoichiometry N [1]: 2
stoichiometry N [2]: 2
Substance: human Fbp2 L190G mutein (enzyme)
